# Where two headings read alike, the source gives them in different places. Where no end group is shown, it is not given here. The star is where a group is joined. Biotin = O=C1N[C@H]2[C@H](CS[C@H]2CCCCC(=O)*)N1; TTDS = NCCCOCCOCCOCCCNC(=O)CCC(=O)*
# Legend:
# [1] = molecular target: T1, MBP-fused PDZ domain 1 of NHERF3 (human, UniProt Q5T2W1 9-90); experiment: fluorescence polarisation
# T1 sequence (looked up): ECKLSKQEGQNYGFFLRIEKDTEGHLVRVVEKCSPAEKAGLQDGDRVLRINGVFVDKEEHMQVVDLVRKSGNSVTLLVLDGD
# [2] = molecular target: T2, MBP-fused PDZ domain of SYNJ2BP (human, UniProt P57105 13-100); experiment: fluorescence polarisation
# T2 sequence (looked up): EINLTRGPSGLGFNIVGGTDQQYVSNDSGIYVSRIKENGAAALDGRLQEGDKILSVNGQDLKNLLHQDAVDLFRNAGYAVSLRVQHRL
# [3] = molecular target: T3, MBP-fused PDZ domain 2 of MAGI2 (human, UniProt Q86UL8 426-510); experiment: fluorescence polarisation
# [4] = molecular target: T4, MBP-fused PDZ domain of MAST1 (human, UniProt Q9Y2H9 967-1055); experiment: fluorescence polarisation
# T4 sequence (looked up): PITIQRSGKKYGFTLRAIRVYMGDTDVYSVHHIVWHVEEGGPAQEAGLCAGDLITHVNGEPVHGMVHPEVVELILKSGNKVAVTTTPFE
# [5] = molecular target: T5, MBP-fused PDZ domain of HTRA1 (human, UniProt Q92743 365-467); experiment: fluorescence polarisation
# [6] = molecular target: T6, MBP-fused PDZ domain 3 of PDZD7 (human, UniProt Q9H5P4 862-934); experiment: fluorescence polarisation
# T6 sequence (looked up): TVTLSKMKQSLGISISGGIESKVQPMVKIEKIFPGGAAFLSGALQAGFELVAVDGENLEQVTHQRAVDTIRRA
# [7] = molecular target: T7, MBP-fused PDZ domain of SNTB1 (human, UniProt Q13884 112-195); experiment: fluorescence polarisation
# T7 sequence (looked up): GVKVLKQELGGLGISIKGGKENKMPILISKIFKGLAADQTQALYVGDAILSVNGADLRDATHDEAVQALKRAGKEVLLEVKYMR
# [8] = molecular target: T8, MBP-fused PDZ domain 1 of PDZRN4 (human, UniProt Q6ZMN7 224-314); experiment: fluorescence polarisation
# T8 sequence (looked up): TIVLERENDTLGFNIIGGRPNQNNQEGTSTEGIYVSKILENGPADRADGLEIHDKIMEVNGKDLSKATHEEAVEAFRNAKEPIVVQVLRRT
# [9] = molecular target: T9, MBP-fused PDZ domain of MAST2 (human, UniProt Q6P0Q8 1104-1192); experiment: fluorescence polarisation
# T9 sequence (looked up): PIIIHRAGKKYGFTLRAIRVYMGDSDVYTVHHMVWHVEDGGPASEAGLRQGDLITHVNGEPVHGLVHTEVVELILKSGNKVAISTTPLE
# [10] = molecular target: T10, MBP-fused PDZ domain 1 of PARD3B (human, UniProt Q8TEW8 201-289); experiment: fluorescence polarisation
# T10 sequence (looked up): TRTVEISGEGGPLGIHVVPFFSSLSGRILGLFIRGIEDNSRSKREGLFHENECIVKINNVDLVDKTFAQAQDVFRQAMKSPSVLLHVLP
# [11] = molecular target: T11, MBP-fused PDZ domain 2 of GRID2IP (human, UniProt A4D2P6 279-356); experiment: fluorescence polarisation
# [12] = molecular target: T12, MBP-fused PDZ domain of ARHGEF12 (human, UniProt Q9NZN5 72-151); experiment: fluorescence polarisation
# T12 sequence (looked up): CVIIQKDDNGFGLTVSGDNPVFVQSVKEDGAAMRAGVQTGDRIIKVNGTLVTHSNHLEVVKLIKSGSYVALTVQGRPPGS
# [13] = molecular target: T13, MBP-fused PDZ domain of SNTA1 (human, UniProt Q13424 87-170); experiment: fluorescence polarisation
# T13 sequence (looked up): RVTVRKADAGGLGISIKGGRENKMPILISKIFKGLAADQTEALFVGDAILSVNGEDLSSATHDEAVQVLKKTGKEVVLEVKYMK
# [14] = molecular target: T14, MBP-fused PDZ domain of SNTG2 (human, UniProt Q9NY99 73-156); experiment: fluorescence polarisation
# T14 sequence (looked up): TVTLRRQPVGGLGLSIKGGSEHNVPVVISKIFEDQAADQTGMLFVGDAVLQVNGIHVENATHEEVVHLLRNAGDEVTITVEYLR
# [15] = molecular target: T15, MBP-fused PDZ domain 1 of PDZRN3 (human, UniProt Q9UPQ7 249-339); experiment: fluorescence polarisation
# T15 sequence (looked up): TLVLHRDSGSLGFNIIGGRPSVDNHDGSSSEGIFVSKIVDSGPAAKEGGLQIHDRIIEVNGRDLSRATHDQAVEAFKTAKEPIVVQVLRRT
# [16] = molecular target: T16, MBP-fused PDZ domain of SNX27 (human, UniProt Q96L92 43-136); experiment: fluorescence polarisation
# [17] = molecular target: T1, MBP-fused PDZ domain 1 of NHERF3; experiment: SPR
# [18] = molecular target: T2, MBP-fused PDZ domain of SYNJ2BP; experiment: SPR
# [19] = molecular target: T3, MBP-fused PDZ domain 2 of MAGI2; experiment: SPR
# [20] = molecular target: T7, MBP-fused PDZ domain of SNTB1; experiment: SPR
# [21] = molecular target: T8, MBP-fused PDZ domain 1 of PDZRN4; experiment: SPR
# [22] = molecular target: T9, MBP-fused PDZ domain of MAST2; experiment: SPR
# [23] = molecular target: T12, MBP-fused PDZ domain of ARHGEF12; experiment: SPR
# [24] = molecular target: T13, MBP-fused PDZ domain of SNTA1; experiment: SPR
# [25] = molecular target: T15, MBP-fused PDZ domain 1 of PDZRN3; experiment: SPR
# [26] = molecular target: MBP-fused second PDZ domain of MAGI1 (human, UniProt Q96QZ7 472-554); experiment: SPR
# [27] = molecular target: T4, MBP-fused PDZ domain of MAST1; experiment: fluorescence polarisation; remark: listed apart in the source
# [28] = molecular target: T5, MBP-fused PDZ domain of HTRA1; experiment: fluorescence polarisation; remark: listed apart in the source
# [29] = molecular target: T6, MBP-fused PDZ domain 3 of PDZD7; experiment: fluorescence polarisation; remark: listed apart in the source
# [30] = molecular target: T7, MBP-fused PDZ domain of SNTB1; experiment: fluorescence polarisation; remark: listed apart in the source
# [31] = molecular target: T9, MBP-fused PDZ domain of MAST2; experiment: fluorescence polarisation; remark: listed apart in the source
# [32] = molecular target: T10, MBP-fused PDZ domain 1 of PARD3B; experiment: fluorescence polarisation; remark: listed apart in the source
# [33] = molecular target: T11, MBP-fused PDZ domain 2 of GRID2IP; experiment: fluorescence polarisation; remark: listed apart in the source
# [34] = molecular target: T13, MBP-fused PDZ domain of SNTA1; experiment: fluorescence polarisation; remark: listed apart in the source
# [35] = molecular target: T14, MBP-fused PDZ domain of SNTG2; experiment: fluorescence polarisation; remark: listed apart in the source
# [36] = molecular target: T16, MBP-fused PDZ domain of SNX27; experiment: fluorescence polarisation; remark: listed apart in the source
# [37] = molecular target: T17, biotinylated RSK1 725-735 peptide, unphosphorylated (human, UniProt Q15418 725-735); experiment: holdup assay
# T17 peptide (looked up): {Biotin-TTDS}-RRVRKLPSTTL
# T3 sequence (Q86UL8 426-510): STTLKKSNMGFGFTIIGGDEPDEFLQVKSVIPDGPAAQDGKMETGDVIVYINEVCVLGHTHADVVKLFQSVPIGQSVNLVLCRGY
# T5 sequence (Q92743 365-467): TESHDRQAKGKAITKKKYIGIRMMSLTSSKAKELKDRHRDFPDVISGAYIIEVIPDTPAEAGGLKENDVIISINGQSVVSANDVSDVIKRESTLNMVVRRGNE
# T11 sequence (A4D2P6 279-356): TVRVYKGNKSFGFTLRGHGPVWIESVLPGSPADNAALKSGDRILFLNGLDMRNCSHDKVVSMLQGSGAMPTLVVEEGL
# Sequence of MBP-fused second PDZ domain of MAGI1 (Q96QZ7 472-554): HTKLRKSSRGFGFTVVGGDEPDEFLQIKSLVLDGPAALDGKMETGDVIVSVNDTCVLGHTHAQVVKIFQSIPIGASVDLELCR
Binder,Kd [1] [µM],Kd [2] [µM],Kd [3] [µM],Kd [4] [µM],Kd [5] [µM],Kd [6] [µM],Kd [7] [µM],Kd [8] [µM],Kd [9] [µM],Kd [10] [µM],Kd [11] [µM],Kd [12] [µM],Kd [13] [µM],Kd [14] [µM],Kd [15] [µM],Kd [16] [µM],also measured
"KLPSTTL (peptide, UniProt Q15418 729-735, looked up, phosphorylated; fluorescein labeled) [fluorescein labeled RSK1 729-735 peptide, phosphorylated]",220 ± 30,16 ± 1,430 ± 45,34 ± 8,11.3 ± 0.4,1.8 ± 0.1,1.5 ± 0.1,14 ± 2,13 ± 2,6.8 ± 0.5,47 ± 15,29 ± 8,4.9 ± 0.4,24 ± 2,17.5 ± 1.4,4.4 ± 0.4,–
"RSSRTRRETQL (not fully specified (N-terminus); also: biotinylated, position not given here) [biotinylated HPV16 E6 peptide]",–,–,–,–,–,–,–,–,–,–,–,–,–,–,–,–,Kd [17]: 23 ± 3 µM; Kd [18]: 33 ± 4 µM; Kd [19]: 2.9 ± 0.14 µM; Kd [20]: 27 ± 4 µM; Kd [21]: 6 ± 1.5 µM; Kd [22]: 2.5 ± 0.2 µM; Kd [23]: 10.9 ± 1.4 µM; Kd [24]: 101 ± 40 µM; Kd [25]: 8.6 ± 1.6 µM; Kd [26]: 3.4 ± 0.8 µM
"RSK1 683-735 peptide, unphosphorylated (peptide, UniProt Q15418 683-735, looked up) peptide: QSQLSHQDLQLVKGAMAATYSALNSSKPTPQLKPIESSILAQRRVRKLPSTTL",–,–,–,–,–,–,–,–,–,–,–,–,–,–,–,–,Kd [27]: 5 ± 1 µM; Kd [28]: 19 ± 3 µM; Kd [29]: 4 ± 1 µM; Kd [30]: 37 ± 6 µM; Kd [31]: 19 ± 7 µM; Kd [32]: 45 ± 7 µM; Kd [33]: 1.7 ± 0.3 µM; Kd [34]: 81 ± 17 µM; Kd [35]: 24 ± 12 µM; Kd [36]: 185 ± 25 µM
first PDZ domain of Scribble (domain or fragment) not shown,–,–,–,–,–,–,–,–,–,–,–,–,–,–,–,–,Kd [37]: 60 to 70 µM
"KLPSTTL (peptide, UniProt Q15418 729-735, looked up, also: fluorescein labeled, site not given here) [fluorescein labeled RSK1 729-735 peptide, unphosphorylated]",80 ± 20,39 ± 2,420 ± 30,26 ± 4,30 ± 2,0.8 ± 0.05,18 ± 2,33 ± 5,7.9 ± 0.6,27 ± 3,5.1 ± 0.4,7.5 ± 0.8,41 ± 11,65 ± 2,90 ± 25,25 ± 6,–

# Source: article PMC6424611 (Journal of molecular biology, 2019)
